{
  "source": "patent US6645733B1",
  "about": "“Fluorescent intensity method for assaying binding between proteins or peptides” (Ingeneus Corporation, priority 1999, dated 2003)",
  "molecular_target": "T1, human AT1 receptor (Homo sapiens, UniProt P30556)",
  "T1 construct": "purchased NEN Life Science Products Inc., Boston, Mass; host or cells: Chinese hamster ovary (CHO) cells, purified membrane preparation",
  "T1 sequence (P30556 1-359)": "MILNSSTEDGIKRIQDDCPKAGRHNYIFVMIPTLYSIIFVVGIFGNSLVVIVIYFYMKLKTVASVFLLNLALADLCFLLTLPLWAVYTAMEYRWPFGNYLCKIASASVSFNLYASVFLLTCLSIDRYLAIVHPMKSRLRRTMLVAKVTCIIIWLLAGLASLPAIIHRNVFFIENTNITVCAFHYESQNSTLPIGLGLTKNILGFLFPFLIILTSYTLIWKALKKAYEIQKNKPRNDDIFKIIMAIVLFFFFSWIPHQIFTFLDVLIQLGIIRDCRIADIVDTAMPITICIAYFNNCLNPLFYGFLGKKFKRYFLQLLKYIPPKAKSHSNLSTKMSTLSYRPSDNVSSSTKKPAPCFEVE",
  "test": "Competition binding experiment: displacement of wildtype Flu-AII from AT1 receptor by unlabeled ligand",
  "details": "all twelve concentrations 1 nM to 300 μM, 10 nM Flu-AII, 0.02 units AT1 receptor (data not shown)",
  "note": "No end group written: not given here.",
  "data": [
    {"sequence": "MLGFFQQPKPR [substance P]", "values": [
      {"measurement": "displacement of Flu-AII binding to AT1 receptor", "value": "unable to displace"}
    ]}
  ]
}
